Laboratory results: the RNAGym collection of RNA variant scans (doi:10.1073/pnas.2313332121)
This sample holds only a part of the variants without activity.

B1: TPR 5TU (parent)
chain: GGAUCUUCUCGAUCUAACAAAAAAGACAAAUCUGCCACAAAGCUUGAGAGCAUCUUCGGAUGCAGAGGCGGCAGCCUUCGGUGGCGCGAUAGCGCCAACGUUCUCAACUAUGACACGCAAAACGCGUGCUCCGUUGAAUGGAGUUUAUCAUG

Variants of: B1
Test: polymerase ribozyme fitness, log enrichment relative to wild type (log ratio); higher = more active; in vitro selection for triplet polymerase activity
How it was run: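 Genotype fitness is the logarithm of its enrichment divided by wild-type enrichment, using inverse-variance-weighted averages of replicates. That logarithm is base 2. Enrichment was measured by Illumina sequencing of input and output libraries from one triplicate in vitro selection round, with frozen incubation at −7 °C, on PCR-built, transcribed mutant libraries of each subunit of a heterodimeric triplet polymerase ribozyme, retaining genotypes with ≥10 input reads and ≥1 read per output.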

Row | Variant | polymerase ribozyme fitness (log ratio)
1 | G25C A30U U78C C96G | -3.97
2 | A24U A60U G83A | -1.22
3 | G25C A60G G83C C96U G141U | -2.48
4 | G25U A89U C96G G100A U102C C118A A119G | ≤ -4.2
5 | G25C A41C U55A U61A C116U U144A | ≤ -4.2
6 | G25C A97G | -2.53
7 | A26C C93G C114U | -4.19
8 | A24U C27G G50C C54G A64C G84A G86C C118G C149U | ≤ -4.2
9 | A24U U135C | -2.21
10 | A24U A52G A106G G143A | -1.81
11 | G25C A150C | -3.47
12 | A24U G34A G92C A137G | -4.07
13 | A24G U55G | -3.78
14 | G25C C36U C57A | -3.99
15 | A24U C93A G112A C114U C116G A119G | ≤ -4.2
16 | A26C C85U | -1.86
17 | A24U G62U C96A G117A | -1.86
18 | A24G U61C U82G C95U | ≤ -4.2
19 | G25C C38A G50C G92C U130G | ≤ -4.2
20 | G25C A64C C96U | ≤ -4.2
21 | A24U A30U G59A U101C U102G A121U G126C A142C | ≤ -4.2
22 | A24U A73U C87A A89U | ≤ -4.2
23 | A24U C36G U56A C57A G71U A91C A106C A110G A138G | ≤ -4.2
24 | A24U A30G A64G C87G A122U C125U C149U | ≤ -4.2

Row | Variant | polymerase ribozyme fitness (log ratio)
25 | A24U A66G | -3.16
26 | A24U A47C G71C A97U A98G C129G | ≤ -4.2
27 | G25C A52C G58C G59C A138U | ≤ -4.2
28 | A24U G42A C108U | 1.52
29 | A26C A30C U45A C54G G92A U104G A147G | ≤ -4.2
30 | A24G G94C | -3.21
31 | A24U A28U C79G A91U A97U C116U C132U U135A | ≤ -4.2
32 | G25U G48A G84A C96G | -4.04
33 | A24G G25U U31C U55A C87G U102G | ≤ -4.2
34 | A24G U53A C95U | ≤ -4.2
35 | A24U U53A C57A C95A C123G | 0.167
36 | G25U U61G C99G A106G A107U A150G | ≤ -4.2
37 | G25U C54A G80A | -4.05
38 | A24U A30C C93G C118A | ≤ -4.2
39 | G25U A37C G83A U134C | -2.66
40 | G25C A49C C93G | ≤ -4.2
41 | A24U G86A | -1.43
42 | A24U G86U | -2.59
43 | A26C A64G G83U C85G A115G | ≤ -4.2
44 | A24U C32A | -3.85
45 | A24U A52U C85U | -1.43
46 | G25A U31A U56A G58A A60C C95U U135A | -1.75
47 | A26C C27U | -2.8
48 | A26C A91G A121C U139C | ≤ -4.2

Row | Variant | polymerase ribozyme fitness (log ratio)
49 | A24U A39C G92U U144G U148G | ≤ -4.2
50 | A26C A52C U53A | ≤ -4.2
51 | G25C G86A A122U | ≤ -4.2
52 | G25U A30G A47G C51U G80C A110C | ≤ -4.2
53 | A24U A52U C118G A142U | -3.54
54 | G25C C57U C123A C125G | -2.33
55 | A24U G25C A28G A30G A49U G83A C87A | ≤ -4.2
56 | A26C C43U A52G G71C A97G | ≤ -4.2
57 | A24U U82A C96G | 0.476
58 | A24U G46C A73G C87U G92C | -3.37
59 | G25U G71C U145G | ≤ -4.2
60 | G25C G48C A66G C93A | ≤ -4.2
61 | A24U U53A U55A G68C C76A C85G | ≤ -4.2
62 | G25U C35A A41G C54U C87U C95U | -3.99
63 | G25U U45A | ≤ -4.2
64 | G25C G88U G124A G128U U135C | ≤ -4.2
65 | A26C C79A C87A U134C A150U | ≤ -4.2
66 | A24U U55A C87U G92U | -3.1
67 | A24U U31G A52C G65A G84C C87U A119G | ≤ -4.2
68 | G25C U53A U61A C95G | -4.18
69 | G25C U45A G59A U90G G100A C116G | ≤ -4.2
70 | A24U G58A C79G A91U C118A G141C | ≤ -4.2
71 | A24U C96A U145A | 0.748
72 | A26C C27G C51G G83C A89C A138G A142U | ≤ -4.2

Row | Variant | polymerase ribozyme fitness (log ratio)
73 | G25U U55A C85A G140C | ≤ -4.2
74 | A24U U45C U101G A106G | 0.694
75 | A24G U33G C87U U101G G140C | ≤ -4.2
76 | G25C C132U | -3.65
77 | G25C G50U C96U A97U | -3.33
78 | G25A C54U C96U A150U | -0.00287
79 | G25U U55G A122U | -3.1
80 | A26C C38U G86U U144G | -3.75
81 | G25U C76U G94C A120G | -2.88
82 | A24U C32G U135G G143A | -4.12
83 | G25U A29U C43A A64U C93U C131U | ≤ -4.2
84 | G25C G83U | -2.85
85 | A24U A98U C99U U127G | -3.94
86 | G25U U61A | -3.25
87 | G25U U61G | -2.3
88 | A26C A41C C57G | -3.4
89 | G25U C69A U82G A89G C125U C149U | ≤ -4.2
90 | A24U G34U G42A U55G A91C G94A | -3.62
91 | A24U U31C G68U G70A G94U C116G U139G | ≤ -4.2
92 | A26C A30U C79U | ≤ -4.2
93 | G25C G68C C93A C99G C114U | ≤ -4.2
94 | A24U U56C G62A A64G G68C G83A G124U U146A | ≤ -4.2
95 | A24U G80C G86U C125G A137C | ≤ -4.2
96 | A24U A41U G86U | -3.62

Row | Variant | polymerase ribozyme fitness (log ratio)
97 | G25U C27U C93U G143U | ≤ -4.2
98 | G25C C27G C32U A40C U55A C57A G88U C96U G141A | ≤ -4.2
99 | A24U C54A G86A | -3.38
100 | A24U C93U A119C | -1.98
101 | G25U C85G C132G | ≤ -4.2
102 | G25A C32A A40C C123A G124A A138C | ≤ -4.2
103 | A26C C38U C69A U77G G88U | ≤ -4.2
104 | A24U A28G C36U G62A U78G G83A A91G G128C | -3.66
105 | A24U G80U C123G U146G | -1.39
106 | A24U U31A A37U G143C | ≤ -4.2
107 | A24U A28U U33A A41C U55G C96U | ≤ -4.2
108 | A26C A29U C36A G42A U61A G70A A73C | ≤ -4.2
109 | A24U G140A | -4.12
110 | G25C C57A C87U A97G | -3.23
111 | G25A G48U U61G C96A A97G C132G | ≤ -4.2
112 | A24U C27U C51A G92A A113U | ≤ -4.2
113 | A26C C32G C57G | ≤ -4.2
114 | G25C A26U C87G A121U C129G U151A | ≤ -4.2
115 | G25U A30C A47C C99G U101G C105A | ≤ -4.2
116 | A24G U31A U82C U101G | ≤ -4.2
117 | A24G C125G | -3.52
118 | A24U C51U G59C G83A G84U C131U | -3.74
119 | A24G C99U | -3.56
120 | G25A U55A U135A | -3.79

Row | Variant | polymerase ribozyme fitness (log ratio)
121 | A24U G68A | -3.78
122 | G25U C85G | -3.79
123 | G25U C85A | -3.88
124 | G25C C79A G84U A97C | ≤ -4.2
125 | A24U U53A U56G C57U A91U | ≤ -4.2
126 | G25U C69G U146A | -4.05
127 | A24U U82G G83C | -1.55
128 | A24U U31C G59C A66G A91U C114U | ≤ -4.2
129 | G25U G83A A119C | -2.78
130 | A24U A41C U45A G46C A49C G86A | -3.99
131 | A24U C63A | 1.21
132 | A24G G59C | -3.7
133 | G25C U33A C69G G71A | ≤ -4.2
134 | A26C A52U A89C | -3.85
135 | A24U A60G C85U A97C C129U | -0.602
136 | G25C U31C C32G U55A C75G C76U C79A A115G A120C C129A | ≤ -4.2
137 | A24U U61A C93A C116G | -4.17
138 | G25A U33A G83C A91U G94A A121U C131U | ≤ -4.2
139 | G25U A66U C93U G94U C125A G126U | ≤ -4.2
140 | G25U C35G A40G A47U A91C A107G G133C | ≤ -4.2
141 | G25A U55A | -2.09
142 | A24U A28C G59C G86C A122U G133C | ≤ -4.2
143 | A26C A47C U77C U102C G117C | ≤ -4.2
144 | G25U U55A C72G C93G G140A | ≤ -4.2

Row | Variant | polymerase ribozyme fitness (log ratio)
145 | A24U U61A | -1.72
146 | A24U C35A A41C G88C | ≤ -4.2
147 | A24U G80C | -4.14
148 | A24U G80U | -0.195
149 | A24U U53A G80A C85U A142C | ≤ -4.2
150 | G25C A52G G83C | -3.42
151 | A24U | 0.541
152 | G25A A89U C95G | -4.2
153 | G25U C96A A142G | -4.05
154 | A24U A37U U82G | -0.974
155 | A24U G50A C108G C125A G141C | ≤ -4.2
156 | A26C C75U G92C | ≤ -4.2
157 | G25A U61A | -3.19
158 | G25U G46C G50C A66G U90C G100C U104A U146C G152A | ≤ -4.2
159 | A24U A49G A52C U53A U55A C69A | ≤ -4.2
160 | G25C C54A C105U | -3.21
161 | A26C C93A | -3.21
162 | G25C U61A C87G A138G | ≤ -4.2
163 | G25C A60G G86C C105U | -3.36
164 | G25C C72U A91G A119U U127A | ≤ -4.2
165 | A24U G68C G83U A107C | ≤ -4.2
166 | A24U G25A A39G A60U G83C | ≤ -4.2
167 | G25A A49G C96G | -3.91
